Test results from paper PMC9291269.
Like-named read-outs stand apart in the source and are kept apart here.

T1: recombinant human serum amyloid A1 (rSAA1) (human), P0DJI8
T1 chain: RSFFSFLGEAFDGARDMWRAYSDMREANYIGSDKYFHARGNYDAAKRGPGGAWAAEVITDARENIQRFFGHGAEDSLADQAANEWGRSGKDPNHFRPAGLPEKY


What was measured:
[1] = target: SAA1 secreted by BEAS-2B cells (lipid-free, in culture supernatant) (human (endogenous in BEAS-2B)); test: immunoblot of HDL-depleted cell culture supernatants
[2] = target: SAA1 secreted by BEAS-2B cells (lipid-free, in culture supernatant) (human (endogenous in BEAS-2B)); test: as above; remark: listed apart in the source
[3] = target: T1, recombinant human serum amyloid A1 …; test: immunoblot of cell culture supernatants; conditions: remark: other sources report otherwise
[4] = target: T1, recombinant human serum amyloid A1 …; test: immunoblot of cell culture supernatants; conditions: remark: other sources report otherwise

Row | stoichiometry N [1] | stoichiometry N [2] | stoichiometry N [3] | stoichiometry N [4] | Molecule
1 | 2 | 6 |  |  | SAA1 secreted by BEAS-2B cells (lipid-free, in culture supernatant) (natural protein)
2 |  |  | 6 | 2 | recombinant human serum amyloid A1 (rSAA1), P0DJI8 19-122 (natural protein) RSFFSFLGEAFDGARDMWRAYSDMREANYIGSDKYFHARGNYDAAKRGPGGAWAAEVITDARENIQRFFGHGAEDSLADQAANEWGRSGKDPNHFRPAGLPEKY
